Source: US20030232052A1 (CALIFORNIA INSTITUTE OF TECHNOLOGY, published 2003)
Like-named read-outs stand apart in the source and are kept apart here.

What was measured:
[1] = target: mutant Htt exon 1 with 103 polyQ repeats fused to EGFP (UniProt P42858); assay: cell-based or functional assay
[2] = target: T1, mutant Htt exon 1 with 103 polyQ repeats fused to EGFP (UniProt P42858 1-88; P42212 1-238 = GFP); assay: coimmunoprecipitation from 293 cell lysates with anti-Flag Ab, blot with anti-HD1-17
T1 construct: Expressed in 293 cells; Order of pieces follows 'Htt exon 1-EGFP'; also called PQ103
Method: The scFvs and IκBα in Triton X-100 cell extracts were precipitated with anti-Flag Ab, and the precipitates were subjected to SDS-PAGE.
Briefly, cells were harvested 24 hours after transfection and lysed by sonication in buffer A (25 mM Hepes, pH 7.4/2.5 mM MgCl₂/50 mM NaCl/1 mM EDTA/1% Triton X-100). After clearing the lysates by centrifugation at 14,300 rpm (Eppendorf microcentrifuge) for 10 minutes at 4° C., 200 μg of each lysate was incubated at 4° C. with rocking for 2 hours with a 40-μl slurry of anti-Flag Ab coupled to protein A beads. The beads were then washed five times in buffer A by using centrifugation at 5,000 rpm, and the complexes were resolved on SDS-PAGE. […] Secondary antibodies conjugated to horseradish peroxidase (HRP) were used to detect the reactive protein bands by enhanced chemiluminescence (Santa Cruz Biotechnology).

[3] = target: mutant Htt exon 1 with 103 polyQ repeats fused to EGFP (UniProt P42858); assay: cell-based or functional assay; remark: listed apart in the source

Molecule: Flag-tagged MW2 scFv expressed in 293 cells
- SDS-insoluble aggregated Htt, scanned band at the top of the gel (no scFv: 48.8) (arbitrary units) [1]: 54.3
- increase in mutant Htt-induced TUNEL staining (TUNEL+ cells), 293 cells [1]: 67%

B1: Flag-tagged IκBα (other, UniProt P25963 1-317, looked up, not shown: small tags and cut ends)
chain: MFQAAERPQEWAMEGPRDGLKKERLLDDRHDSGLDSMKDEEYEQMVKELQEIRLEPQEVPRGSEPWKQQLTEDGDSFLHLAIIHEEKALTMEVIRQVKGDLAFLNFQNNLQQTPLHLAVITNQPEIAEALLGAGCDPELRDFRGNTPLHLACEQGCLASVGVLTQSCTTPHLHSILKATNYNGHTCLHLASIHGYLGIVELLVSLGADVNAQEPCNGRTALHLAVDLQNPDLVSLLLKCGADVNRVTYQGYSPYQLTWGRPSTRIQQQLGQLTLENLQMLPESEDEESYDTESEFTEFTEDELPYDDCVFGGQRLTL
notes: Order of pieces follows the name Flag-IκBα; also called Flag-IκBα
- binding result [2]: no binding

B2: Flag-tagged MW7 scFv expressed in 293 cells (scFv)
scFv: MDYKDDDDKVAQVKLQESGGGLVQPGGSMKLSCAASGFTFSDAWMDWVRQSPEKGLSGVAEIRSKANNHATYYAESVKGRFTISRDDSKSSVYLQMNSLRAEDTGIYYCIYAGFAYWGQGTTVTVSSGGGGSGGGGSGGGGSDIELTQSPSSLAMSVGQKVTMSCKSSQSLLNSSNQKNYLAWYQQKPGQSPKLLVYFASTRESGVPDRFIGSGSGTDFTLTISSVQAEDLADYFCQQHYSTPWTFGGGTKLEIK
- SDS-insoluble aggregated Htt, scanned band at the top of the gel (no scFv: 48.8) (arbitrary units) [3]: 0.2
